Measurements from the supplement of paper PMC9112550, “Optimization of the antimicrobial peptide Bac7 by deep mutational scanning” (BMC Biology, 2022).

Tested on: Escherichia coli TOP10
Assay: shrunken log2 fold change of peptide-encoding DNA abundance (4.5 h post-induction vs induction); higher = less antimicrobial activity (less host growth inhibition)
Conditions: time post-induction: 4.5 h; library: site-saturation at positions 5, 18, 19, 20
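Note: peptides expressed intracellularly from a pBAD plasmid library in pooled LB shake-flask culture, induced with 0.3% L-arabinose, DNA abundance read by NGS, three biological replicates, DESeq2 with apeglm shrinkage.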

| Sequence | shrunken log2 fold change |
| --- | --- |
| RRIRCRPPRLPRPRPRPNQRPRP | -0.093 |
| RRIRSRPPRLPRPRPRPCTNPRP | -0.256 |
| RRIRGRPPRLPRPRPRPVPPPRP | 1.17 |
| RRIRERPPRLPRPRPRPALKPRP | 0.4 |
| RRIRGRPPRLPRPRPRPTCKPRP | 0.57 |
| RRIRKRPPRLPRPRPRPALYPRP | 0.453 |
| RRIRMRPPRLPRPRPRPFRNPRP | -0.0431 |
| RRIRCRPPRLPRPRPRPLNHPRP | 0.519 |
| RRIRWRPPRLPRPRPRPGFSPRP | 0.138 |
| RRIRPRPPRLPRPRPRPKDRPRP | -0.114 |
| RRIRDRPPRLPRPRPRPRWWPRP | 0.0238 |
| RRIRTRPPRLPRPRPRPMEIPRP | -0.00196 |
| RRIRCRPPRLPRPRPRPGENPRP | 0.0862 |
| RRIRYRPPRLPRPRPRPMPIPRP | -0.16 |
| RRIRMRPPRLPRPRPRPDLHPRP | 0.0663 |
| RRIRKRPPRLPRPRPRPEMCPRP | 1.1 |
| RRIRPRPPRLPRPRPRPRCGPRP | 0.282 |
| RRIRRRPPRLPRPRPRPPNVPRP | 0.115 |
| RRIRFRPPRLPRPRPRPCLMPRP | -0.379 |
| RRIRTRPPRLPRPRPRPHAWPRP | 3.26 |
| RRIRCRPPRLPRPRPRPIHYPRP | -0.95 |
| RRIRQRPPRLPRPRPRPGYEPRP | 0.00854 |
| RRIRARPPRLPRPRPRPSWAPRP | 0.106 |

| Sequence | shrunken log2 fold change |
| --- | --- |
| RRIRMRPPRLPRPRPRPVPSPRP | 0.588 |
| RRIRQRPPRLPRPRPRPCNHPRP | 0.037 |
| RRIRWRPPRLPRPRPRPDAPPRP | 0.558 |
| RRIRFRPPRLPRPRPRPCQLPRP | -0.938 |
| RRIRYRPPRLPRPRPRPEYIPRP | -0.348 |
| RRIRKRPPRLPRPRPRPRIKPRP | 0.185 |
| RRIRNRPPRLPRPRPRPWRSPRP | 0.111 |
| RRIRGRPPRLPRPRPRPVMTPRP | 1.8 |
| RRIRCRPPRLPRPRPRPDRAPRP | 0.0901 |
| RRIRNRPPRLPRPRPRPGQSPRP | 0.108 |
| RRIRFRPPRLPRPRPRPTIQPRP | -0.266 |
| RRIRQRPPRLPRPRPRPNSFPRP | 0.151 |
| RRIRLRPPRLPRPRPRPLPHPRP | -0.309 |
| RRIRQRPPRLPRPRPRPLPDPRP | 0.0466 |
| RRIRHRPPRLPRPRPRPHCCPRP | -0.156 |
| RRIRVRPPRLPRPRPRPETRPRP | 0.577 |
| RRIRGRPPRLPRPRPRPWYLPRP | -0.575 |
| RRIRWRPPRLPRPRPRPIKPPRP | -0.0158 |
| RRIRWRPPRLPRPRPRPLCAPRP | 0.776 |
| RRIRWRPPRLPRPRPRPCIQPRP | -0.394 |
| RRIRFRPPRLPRPRPRPTISPRP | -0.611 |
| RRIRERPPRLPRPRPRPPGDPRP | 0.619 |
| RRIRDRPPRLPRPRPRPPTSPRP | 0.00594 |

| Sequence | shrunken log2 fold change |
| --- | --- |
| RRIRTRPPRLPRPRPRPSKVPRP | -0.0295 |
| RRIRIRPPRLPRPRPRPNAYPRP | -0.243 |
| RRIRFRPPRLPRPRPRPEGVPRP | -0.175 |
| RRIRVRPPRLPRPRPRPWMGPRP | -0.339 |
| RRIRQRPPRLPRPRPRPGHHPRP | 0.245 |
| RRIRIRPPRLPRPRPRPKPTPRP | 0.448 |
| RRIRDRPPRLPRPRPRPSPQPRP | 0.204 |
| RRIRQRPPRLPRPRPRPYFGPRP | -0.305 |
| RRIRWRPPRLPRPRPRPVMEPRP | 0.0979 |
| RRIRHRPPRLPRPRPRPPMCPRP | -0.00483 |
| RRIRCRPPRLPRPRPRPNHCPRP | -0.551 |
| RRIRQRPPRLPRPRPRPFLQPRP | -0.194 |
| RRIRERPPRLPRPRPRPNYYPRP | -0.893 |
| RRIRFRPPRLPRPRPRPLVCPRP | -0.365 |
| RRIRWRPPRLPRPRPRPMEVPRP | -0.00973 |
| RRIRKRPPRLPRPRPRPFAEPRP | 0.266 |
| RRIRPRPPRLPRPRPRPEKYPRP | -0.562 |
| RRIRARPPRLPRPRPRPTFLPRP | 0.113 |
| RRIRNRPPRLPRPRPRPACRPRP | 0.4 |
| RRIRIRPPRLPRPRPRPVELPRP | -0.0129 |
| RRIRNRPPRLPRPRPRPEMGPRP | -0.0261 |
| RRIRERPPRLPRPRPRPDGNPRP | -0.032 |
| RRIRMRPPRLPRPRPRPPITPRP | -0.109 |

| Sequence | shrunken log2 fold change |
| --- | --- |
| RRIRNRPPRLPRPRPRPMNHPRP | 0.0515 |
| RRIRDRPPRLPRPRPRPHNIPRP | -0.53 |
| RRIRERPPRLPRPRPRPDWNPRP | -0.631 |
| RRIRSRPPRLPRPRPRPVHFPRP | 0.0527 |
| RRIRLRPPRLPRPRPRPFMPPRP | -0.195 |
| RRIRMRPPRLPRPRPRPCMHPRP | 0.14 |
| RRIRCRPPRLPRPRPRPNMNPRP | -0.88 |
| RRIRIRPPRLPRPRPRPWIDPRP | 0.0218 |
| RRIRNRPPRLPRPRPRPHQIPRP | -0.247 |
| RRIRDRPPRLPRPRPRPVLPPRP | 0.0231 |
| RRIRERPPRLPRPRPRPQMHPRP | -0.634 |
| RRIRSRPPRLPRPRPRPKNIPRP | -0.314 |
| RRIRCRPPRLPRPRPRPPGNPRP | 0.0392 |
| RRIRHRPPRLPRPRPRPSENPRP | -0.096 |
| RRIRARPPRLPRPRPRPMYGPRP | 0.22 |
| RRIRYRPPRLPRPRPRPQIMPRP | -0.705 |
| RRIRIRPPRLPRPRPRPFGGPRP | -0.103 |
| RRIRDRPPRLPRPRPRPKCDPRP | 0.0437 |
| RRIRKRPPRLPRPRPRPASPPRP | 0.122 |
| RRIRHRPPRLPRPRPRPEQYPRP | -0.224 |
| RRIRIRPPRLPRPRPRPKQNPRP | -0.197 |
| RRIRQRPPRLPRPRPRPHKPPRP | -0.0272 |
